Measured values reported in patent US20090202550A1 (WILEX, published 2009).

Columns and labels:
[1] = target: FPRL1 on freshly isolated monocytes (human) (UniProt P25090); assay: cell-based or functional assay
[2] = target: T1, soluble recombinant uPAR fragment D2D3 93-274 (human, UniProt Q03405 115-296); assay: standard ELISA, coated purified protein, 7G1 as detecting antibody (FIG. 7A)
T1 construct: Purified from COS-7 supernatant on an anti-FLAG column; Mature-protein numbering

[3] = target: full length GPI-linked D1D2D3 (cell surface uPAR) (human) (UniProt Q03405); assay: cell-based or functional assay
Sequence of full length GPI-linked D1D2D3 (cell surface uPAR) (human) (Q03405 23-305, one chain of several): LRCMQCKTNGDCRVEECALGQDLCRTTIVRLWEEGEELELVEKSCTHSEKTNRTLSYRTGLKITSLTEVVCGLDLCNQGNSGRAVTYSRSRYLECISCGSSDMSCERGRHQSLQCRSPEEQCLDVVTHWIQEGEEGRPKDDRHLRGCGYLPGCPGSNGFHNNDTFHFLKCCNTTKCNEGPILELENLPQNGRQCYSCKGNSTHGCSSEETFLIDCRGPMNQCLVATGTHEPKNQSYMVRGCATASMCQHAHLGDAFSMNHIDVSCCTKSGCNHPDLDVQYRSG

Sequence of FPRL1 on freshly isolated monocytes (human) (P25090 whole entry, the tested form may be a part): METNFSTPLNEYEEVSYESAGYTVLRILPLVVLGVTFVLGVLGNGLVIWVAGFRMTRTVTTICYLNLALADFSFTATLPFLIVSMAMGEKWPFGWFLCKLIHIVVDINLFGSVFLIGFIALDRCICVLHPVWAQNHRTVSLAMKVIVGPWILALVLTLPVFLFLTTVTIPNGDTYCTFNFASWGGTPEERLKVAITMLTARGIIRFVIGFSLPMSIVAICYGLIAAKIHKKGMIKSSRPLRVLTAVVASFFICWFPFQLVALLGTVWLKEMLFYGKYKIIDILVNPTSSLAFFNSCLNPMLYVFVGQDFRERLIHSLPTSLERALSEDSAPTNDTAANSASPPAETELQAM
T1 sequence (Q03405 other isoform, or with tags, fused parts or gaps limits assumed): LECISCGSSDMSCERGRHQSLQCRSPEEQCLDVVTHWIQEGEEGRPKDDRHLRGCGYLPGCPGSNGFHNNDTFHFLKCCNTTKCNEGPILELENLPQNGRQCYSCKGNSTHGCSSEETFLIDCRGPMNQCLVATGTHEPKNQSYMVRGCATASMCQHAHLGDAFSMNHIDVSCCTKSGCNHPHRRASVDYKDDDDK

% induced migration of monocytes, MMK-1 as chemoattractant, rabbit IgG control present [1] [%] | Migration fold increase, MMK-1 as chemoattractant, rabbit IgG control present [1] [fold] | fold lower recognition than of D2D3 84-274 [2] [fold] | % induced migration (ATF) of monocytes, antibody 50 µg/ml [3] [%] | % of inhibition (referred to MOPC treatment) [3] [%] | Migration fold increase [3] [fold] | Molecule
303 | 2.94 | – | – | – | – | MMK-1, FPRL1 ligand (peptide)
– | – | ≥ 100 | 210 | 10 | 2.44 | monoclonal antibody 7G1 (antibody, V domains shown) VH: VQLQESGPELKKPGETVKISCKASGYTFTDYSMHWVKQAPGKGLKCMGWINTETTKSTYADDFKGRFALSLETSASTVYLQISNLKNEDTATYFCAREASYGEFDYWGQGTTVTVSS VL: DIVLTQSPASLAVSLGQRATISCRASKSVSTSGYSYMHWYQQKPGQPPKLLIYLASNLESGVPARFSGSGSGTDFTLDIHPVEEEDAATYYCQHSRELPYTFGGGTKLELK
